Data as given in EP4707292A2.

Assays:
[1] = molecular target: Adeno-associated virus 8 (AAV8) virion (adeno-associated virus 8); assay: co-IP/LC-MS/MS, AAV8 + human serum vs PBS control
[2] = molecular target: Adeno-associated virus 9 (AAV9) virion (adeno-associated virus 9); assay: co-IP with ADK9/LC-MS/MS, AAV9 + human serum vs control
[3] = molecular target: Haploid virus AAV2/8 1:3 (adeno-associated virus 2; adeno-associated virus 8); assay: cell-based or functional assay
[4] = molecular target: Haploid virus AAV2/8 1:1 (adeno-associated virus 2; adeno-associated virus 8); assay: cell-based or functional assay
[5] = molecular target: Adeno-associated virus 8 (AAV8) virion (adeno-associated virus 8); assay: cell-based or functional assay
[6] = molecular target: Adeno-associated virus 2 (AAV2) virion (adeno-associated virus 2); assay: cell-based or functional assay
[7] = molecular target: Haploid virus AAV2/8 3:1 (adeno-associated virus 2; adeno-associated virus 8); assay: cell-based or functional assay

Chain of Fibronectin, P02751 32-2477 (P02751 32-2477 limits assumed): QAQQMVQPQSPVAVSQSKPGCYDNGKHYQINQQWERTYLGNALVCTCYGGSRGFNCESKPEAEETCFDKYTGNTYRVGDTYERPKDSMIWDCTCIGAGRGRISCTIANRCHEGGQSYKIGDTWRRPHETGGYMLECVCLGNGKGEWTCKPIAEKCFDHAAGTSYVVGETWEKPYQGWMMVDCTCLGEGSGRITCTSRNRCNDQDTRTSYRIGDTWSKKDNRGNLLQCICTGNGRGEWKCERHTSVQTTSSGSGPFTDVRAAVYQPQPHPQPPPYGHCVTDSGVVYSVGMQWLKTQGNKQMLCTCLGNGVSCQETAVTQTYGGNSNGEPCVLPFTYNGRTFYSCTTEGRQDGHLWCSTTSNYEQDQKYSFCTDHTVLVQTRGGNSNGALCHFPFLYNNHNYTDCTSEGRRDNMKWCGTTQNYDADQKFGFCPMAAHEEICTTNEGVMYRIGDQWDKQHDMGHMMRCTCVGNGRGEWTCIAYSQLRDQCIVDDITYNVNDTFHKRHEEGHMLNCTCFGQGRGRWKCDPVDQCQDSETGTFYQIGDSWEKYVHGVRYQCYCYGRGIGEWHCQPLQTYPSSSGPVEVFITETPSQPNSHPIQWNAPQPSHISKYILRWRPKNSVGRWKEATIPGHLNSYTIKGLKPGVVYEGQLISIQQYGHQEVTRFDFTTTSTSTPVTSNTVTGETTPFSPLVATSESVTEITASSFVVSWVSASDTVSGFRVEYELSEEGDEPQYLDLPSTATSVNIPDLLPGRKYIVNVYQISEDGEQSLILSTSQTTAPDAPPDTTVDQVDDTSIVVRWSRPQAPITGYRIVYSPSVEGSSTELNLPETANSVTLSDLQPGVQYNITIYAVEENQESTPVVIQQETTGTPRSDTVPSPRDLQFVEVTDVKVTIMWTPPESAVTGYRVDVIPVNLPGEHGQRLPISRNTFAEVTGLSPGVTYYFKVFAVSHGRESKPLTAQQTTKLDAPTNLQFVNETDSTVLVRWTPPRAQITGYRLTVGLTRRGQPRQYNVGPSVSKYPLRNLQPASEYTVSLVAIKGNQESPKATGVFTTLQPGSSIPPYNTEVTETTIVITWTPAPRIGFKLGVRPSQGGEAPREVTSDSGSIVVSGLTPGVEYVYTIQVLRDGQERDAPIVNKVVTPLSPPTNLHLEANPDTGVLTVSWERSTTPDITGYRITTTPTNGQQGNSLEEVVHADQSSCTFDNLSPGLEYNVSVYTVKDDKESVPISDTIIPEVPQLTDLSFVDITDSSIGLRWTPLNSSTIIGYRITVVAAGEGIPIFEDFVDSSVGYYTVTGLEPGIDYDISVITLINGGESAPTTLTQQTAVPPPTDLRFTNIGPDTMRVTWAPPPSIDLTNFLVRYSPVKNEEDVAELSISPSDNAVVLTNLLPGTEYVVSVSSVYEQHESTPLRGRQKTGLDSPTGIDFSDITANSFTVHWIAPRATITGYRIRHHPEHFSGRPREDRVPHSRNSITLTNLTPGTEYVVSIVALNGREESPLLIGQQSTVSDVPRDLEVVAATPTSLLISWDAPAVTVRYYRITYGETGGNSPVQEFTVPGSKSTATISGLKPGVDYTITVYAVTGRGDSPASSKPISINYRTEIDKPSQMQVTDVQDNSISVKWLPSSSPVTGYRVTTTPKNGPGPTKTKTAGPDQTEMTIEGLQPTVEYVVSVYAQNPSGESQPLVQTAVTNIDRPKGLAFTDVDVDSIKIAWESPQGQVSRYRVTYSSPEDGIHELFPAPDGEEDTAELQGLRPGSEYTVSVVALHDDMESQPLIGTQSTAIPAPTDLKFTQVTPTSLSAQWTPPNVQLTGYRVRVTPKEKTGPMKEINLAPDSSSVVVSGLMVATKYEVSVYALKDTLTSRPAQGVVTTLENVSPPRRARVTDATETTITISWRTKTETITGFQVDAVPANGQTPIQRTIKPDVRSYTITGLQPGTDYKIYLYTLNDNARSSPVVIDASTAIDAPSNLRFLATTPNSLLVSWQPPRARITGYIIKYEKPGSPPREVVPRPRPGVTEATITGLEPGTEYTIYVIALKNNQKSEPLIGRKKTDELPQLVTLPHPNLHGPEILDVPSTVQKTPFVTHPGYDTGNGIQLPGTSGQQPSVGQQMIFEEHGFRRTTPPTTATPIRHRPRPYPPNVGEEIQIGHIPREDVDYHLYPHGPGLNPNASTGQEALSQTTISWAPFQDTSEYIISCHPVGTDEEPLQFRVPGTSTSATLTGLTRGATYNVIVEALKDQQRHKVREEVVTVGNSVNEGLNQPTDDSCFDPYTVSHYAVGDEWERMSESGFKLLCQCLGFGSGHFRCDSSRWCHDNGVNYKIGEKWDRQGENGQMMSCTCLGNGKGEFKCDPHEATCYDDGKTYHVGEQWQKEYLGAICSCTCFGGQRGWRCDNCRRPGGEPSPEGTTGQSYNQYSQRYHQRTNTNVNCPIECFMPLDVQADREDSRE
Chain of Ig kappa chain V-I region EU (P01602 23-117 limits assumed): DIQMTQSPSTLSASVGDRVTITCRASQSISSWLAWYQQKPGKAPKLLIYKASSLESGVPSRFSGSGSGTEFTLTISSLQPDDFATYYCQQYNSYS

Substance	fold change [1] [fold]	fold change [2] [fold]	also measured
Platelet factor 4 variant (from UniProt P10720 31-104)	0.938	0.938	Fold increase [2]: 1.47 fold
Monoclonal antibody ADK8			Neutralization antibody titer (reciprocal dilution) [3]: 1024; Neutralization antibody titer (reciprocal dilution) [4]: 512; Neutralization antibody titer (reciprocal dilution) [5]: 1024; Neutralization antibody titer (reciprocal dilution) [6]: < 2; Neutralization antibody titer (reciprocal dilution) [7]: 512
Alpha-2-HS-glycoprotein (from UniProt C9JV77 19-301; C9JV77 342-368)	3.17	3.17	
Complement C4-A (from UniProt P0C0L4 20-1744)	2.42	2.42	
Ig lambda-2 chain C regions (from UniProt P0DOY2 1-106)	1.5	1.5	
Fibrinogen gamma chain (Fragment) (from UniProt C9JU00 1-123)	0.417	0.417	Fold increase [2]: 8.36 fold
Ig kappa chain V-III region SIE (from UniProt P01619 21-116)	2.79	2.79	
Monoclonal antibody A20			Neutralization antibody titer (reciprocal dilution) [3]: < 2; Neutralization antibody titer (reciprocal dilution) [4]: 32; Neutralization antibody titer (reciprocal dilution) [5]: < 2; A20 neutralizing antibody titer (the dilution at first time inhibits AAV transduction over 50%) (reciprocal dilution) [6]: 640; Neutralization antibody titer (reciprocal dilution) [6]: 512; Neutralization antibody titer (reciprocal dilution) [7]: 2048
Fibronectin, P02751 32-2477	2.5	2.5	Fold increase [2]: 5.41 fold
Ig kappa chain V-I region EU (from UniProt P01602 23-117)	3.83	3.83	
Transthyretin (from UniProt P02766 21-147)	5.55	5.55	
